# Test results from IntAct's records for PubMed 21081649.
# B1: NAD-dependent protein deacetylase sirtuin-2 (Homo sapiens), Q8IXJ6-2 (parent)
# chain: MDFLRNLFSQTLSLGSQKERLLDELTLEGVARYMQSERCRRVICLVGAGISTSAGIPDFRSPSTGLYDNLEKYHLPYPEAIFEISYFKKHPEPFFALAKELYPGQFKPTICHYFMRLLKDKGLLLRCYTQNIDTLERIAGLEQEDLVEAHGTFYTSHCVSASCRHEYPLSWMKEKIFSEVTPKCEDCQSLVKPDIVFFGESLPARFFSCMQSDFLKVDLLLVMGTSLQVQPFASLISKAPLSTPRLLINKEKAGQSDPFLGMIMGLGGGMDFDSKKAYRDVAWLGECDQGCLALAELLGWKKELEDLVRREHASIDAQSGAGVPNPSTSASPKKSPPPAKDEARTTEREKPQ
# Variants of: B1
# Conditions: with h4_human H4C16, P62805
row,effect of a mutation on the interaction,Variant
1,increasing interaction,L4A;L12A;H150Y
